What was measured:
SUM190 cells [1] = test: Fab-ZAP internalization assay (CTG cell viability); type: cell-based, human
Procedure: The ability of the anti-Nectin-4 antibodies to induce nectin-4 internalization was assessed on SUM190 cell lines expressing lower levels of nectin-4 and in SUM185 cells expressing higher levels of Nectin-4. The internalization was indirectly determined by using the Fab-ZAP human Internalization Kit (Advanced Targeting Systems) to allow the anti-Nectin-4 antibodies to target and eliminate Nectin-4 expressing cells, with measurement of cell viability using the CTG substrate (CellTiter-Glo® Luminescent Cell Viability Assay (Promega). Fab-ZAP is a chemical conjugate of goat anti-human monovalent antibody and the ribosome-inactivating protein, saporin. The antibodies used are affinity-purified polyclonal antibodies against both the heavy and light chain of human IgG. This secondary conjugate is used to evaluate the potential of a primary antibody to internalize.
Briefly, a concentration range of the anti-Nectin-4 antibodies or the controls were incubated with SUM190 or SUM185 cells. After 45-minute incubation at 4° C., the non-bound antibodies were washed away and Fab-ZAP was added on top of the cells. The newly formed complexes (anti-nectin-4 antibody+Fab-ZAP) internalized into the cells where the Saporin was released and stopped the protein synthesis leading to cell death. The internalization capability of the antibody was indirectly determined by the cell's viability: the more efficient was the cell killing; the better was the internalization capability of the antibody.

SUM190 cells [2] = test: In vivo efficacy of ADCs, SUM190 mouse model of human breast cancer (Example 9); details: single i.v. injection 3 mg/kg; antibodies conjugated to ggfg-Dxd, DAR=8
Procedure: When tumors reached a volume between 195 and 250 mm3, mice were randomized into groups of 9 mice for intravenous treatment with a single injection of 3 mg/kg of camptothecin ADCs. Tumor growth were followed twice a week. Kaplan Meier survival curves were established by using GraphPad Prism V7 software according to the following criteria: When the tumor volume reached 1500 mm3, mice were euthanized and considered dead on the day of sacrifice (D).

[3] = biological target: T1, wild-type human Nectin-4 protein (huNectin4-his-BirA) (Homo sapiens, UniProt Q96NY8); test: Affinity determination by SPR (Biacore T200); type: binding; details: 25° C.
T1 sequence (Q96NY8 with tags, fused parts or gaps): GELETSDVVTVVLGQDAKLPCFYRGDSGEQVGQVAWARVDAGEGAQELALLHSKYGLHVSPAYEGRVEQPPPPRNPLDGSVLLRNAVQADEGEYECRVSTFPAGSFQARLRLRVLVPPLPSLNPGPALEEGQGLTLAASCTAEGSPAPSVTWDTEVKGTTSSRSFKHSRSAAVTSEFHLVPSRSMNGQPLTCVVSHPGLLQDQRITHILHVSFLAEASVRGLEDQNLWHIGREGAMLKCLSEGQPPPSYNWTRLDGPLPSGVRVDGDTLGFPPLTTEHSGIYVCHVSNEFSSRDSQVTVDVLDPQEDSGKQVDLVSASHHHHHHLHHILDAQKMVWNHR
Procedure: Antibodies were tested for binding affinity to the wild-type human Nectin-4 protein by SPR (Surface Plasmon Resonance) methods. Measurements were performed on a Biacore T200 apparatus (Biacore GE Healthcare) at 25° C. Sensorgrams were analyzed with Biacore T100 Evaluation software. A CMR Sensor Chip with immobilized Protein A at about 600 RU was used. Anti-Nectin-4 antibodies were captured onto the Protein-A chip (antibodies diluted to 1 μg/ml in HBS-EP+1× buffer and injected over 120s at 40 μL/min). Recombinant human monomeric huNectin4-his-BirA protein was injected at different concentrations in a range from 100 nM to 1.56 nM over captured antibodies (HuNectin4-His-BirA diluted in HBS-EP+1× in ½ dilutions, injected over 120s at 40 μl/min) and allowed to dissociate for 600s. The chip was regenerated with NaOh 10 mM 2× for 30s at 40 μl/min. The sensorgram sets were fitted using the 1:1 kinetic binding model or two state reaction model, as a function of the profile of the curves.

[4] = biological target: T2, Nectin-4 Mutant 4 (A72P/G73N/G75S) (Homo sapiens, UniProt Q96NY8, A72P/G73N/G75S); test: Binding to cell surface expressed Nectin-4 point mutant; details: HEK-293T
T2 construct: expressed in transfected cells; host or cells: HEK293T
T2 sequence (Q96NY8 32-510 A72P/G73N/G75S): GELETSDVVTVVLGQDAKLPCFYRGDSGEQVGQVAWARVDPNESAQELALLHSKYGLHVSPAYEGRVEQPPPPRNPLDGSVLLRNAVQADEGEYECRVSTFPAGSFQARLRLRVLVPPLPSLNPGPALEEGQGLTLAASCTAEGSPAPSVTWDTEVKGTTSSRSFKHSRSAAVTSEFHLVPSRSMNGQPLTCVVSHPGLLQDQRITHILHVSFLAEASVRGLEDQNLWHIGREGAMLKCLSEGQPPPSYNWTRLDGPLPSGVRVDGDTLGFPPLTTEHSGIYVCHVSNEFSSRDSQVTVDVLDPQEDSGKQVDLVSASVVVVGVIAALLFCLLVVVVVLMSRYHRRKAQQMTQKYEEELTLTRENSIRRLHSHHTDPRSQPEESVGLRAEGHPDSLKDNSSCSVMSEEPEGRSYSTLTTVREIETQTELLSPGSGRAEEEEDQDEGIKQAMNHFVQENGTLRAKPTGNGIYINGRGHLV
From the text: Combined with the published structures of the Nectin-4 domains, Nectin-4 mutations at surface exposed amino acids residues were designed. Nectin-4 domain structure was modelled based on Protein Data Bank reference: 4FRW (domains V et C1). Human Nectin-4 used was NCBI Reference Sequence: NP_112178.2, mouse Nectin-4 used was NCBI Reference Sequence: AAL79833.1, cynomolgus Nectin-4 used was NCBI Reference Sequence: XP_005541277.1, rat Nectin-4 used was NCBI Reference Sequence: NP_001102546.1. The cells expressing the Nectin-4 mutants are then be used for testing anti-Nectin-4 antibodies for loss of binding to different Nectin-4 mutants to identify antibodies that bind to the same site on Nectin-4. […] FIGS. 12A and 12B show a molecular model of the human Nectin-4 protein, indicating the position of substituted residues in mutants 7 (12A) and in mutants 7bis (12B); these mutants are in the C1 domain identify two sites at the junction of domain C1 and V domain that are on opposing faces of the Nectin-4 protein.
Nectin-4 mutants were generated by PCR. The sequences amplified were run on agarose gel and purified using the Macherey Nagel PCR Clean-Up Gel Extraction kit. The purified PCR products generated for each mutant were then ligated into an expression vector, with the ClonTech InFusion system. The vectors containing the mutated sequences were prepared as Miniprep and sequenced. After sequencing, the vectors containing the mutated sequences were prepared as Midiprep using the Promega PureYield™ Plasmid Midiprep System. HEK293T cells were grown in DMEM medium (Invitrogen), transfected with vectors using Invitrogen's Lipofectamine 2000 and incubated at 37° C. in a CO2 incubator for 48 hours prior to testing for transgene expression. The targeted amino acid mutations are shown in Table 2 below, listing the residue present in wild-type Nectin-4/position of residue/residue present in mutant Nectin-4, with position reference being to the Nectin-4 protein with leader peptide shown in SEQ ID NO: 1.

B1: 5E7 (antibody, V domains shown)
VH: QVQLQQPGAELVKPGASVKLSCKASGYIFTSYWMHWVKQRPGQGLEWIGEIDPSDSYTNYNQKFKGKATLTLDKSSSTTYMQLSSLTSEDSAVYYCVRGYGNYGDYWGQGTTLTVSS
VL: DVVMTQAAFSNPVTLGTSASISCRSSKSLLHSNGITYLYWYLQKPGQSPQLLIYQMSNLASGVPDRFSSSGSGTDFTLRISRVEAEDVGVYYCAQNLELPWTFGGGTKLEIK
- induction of internalization (SUM190 cells [1]): as efficient as the enfortumab in inducing internalization
- control of tumor growth (SUM190 cells [2]): strong ability to prevent tumor growth
- ka [3]: 620000 M⁻¹ s⁻¹
- kd [3]: 0.003 s⁻¹
- association with Nectin-4 Mutant 4 [4]: +

B2: 10B12: anti-Nectin-4 antibody, VH SEQ ID NO: 24, VL SEQ ID NO: 25, binds junction of domain C1 and V (antibody, listed as Mus musculus, V domains shown)
VH: QVQLQQPGAELVKPGASVKLSCKASGYTFTSYWMHWVKQRPGQGLEWIGEIDPSDSYTNYNQKFKGKATLTVDKSSSTAYMQLSSLTSEDSAVYYCVRGYGNYGDYWGQGTTLTVSS
VL: DIVMTQAAFSNPVTLGTSASISCRSSKSLLHSNGITYLYWYLQKPGQSPQLLIYQMSNLASGVPDRFSSSGSGTDFTLRISRVEAEDVGVYYCAQNLELPWTFGGGTKLEIK
- induction of internalization (SUM190 cells [1]): as efficient as the enfortumab in inducing internalization
- ka [3]: 860000 M⁻¹ s⁻¹
- kd [3]: 0.01 s⁻¹
- association with Nectin-4 Mutant 4 [4]: +

B3: N41 (antibody, V domains shown)
VH: QVQLKQSGPGLVQPSQSLSITCTVSGFSLTNYGVHWVRQSPGKGLEWLGVIWSGGSTDYNAAFISRLSISKDTSKSQVFFKMNSLQADDTAIYYCARELIHAMDNWGQGTSVTVSS
VL: DIQMTQSPASLSVSVGETVTITCRASENIYSNLAWYQQKQGNSPQLLVFAATNLADGVPSRFSGSGSGTQYSLKINSLQSEDFGTYYCQHFWGTPTFGGGTKLEIK
- control of tumor growth (SUM190 cells [2]): no longer showed the ability to control tumor growth
- ka [3]: 580000 M⁻¹ s⁻¹
- kd [3]: 0.00087 s⁻¹
- association with Nectin-4 Mutant 4 [4]: +

— patent US20240325557A1, “TREATMENT OF CANCER” (INNATE PHARMA, priority 2020, published 2024)
